# The supplement of paper PMC7125110
# ± gives the standard error. For some of these results: This sample holds only a part of the variants without activity.
# B1: glmS ribozyme (parent)
# chain: AUAAAAGCGCCAGAACUACAGAAAUGUAGUUGACGAGGAGGAGGUUUAUCGAAUUUUCGGCGGAUGCCUCCAAA
# Assays:
# Details in all cases: with glucosamine-6-phosphate
# glucosamine-6-phosphate [1] = variants of: B1; test: kcat; higher = faster cleavage; RNA array
# In short: (§1)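 Barcoded ribozyme variants on sequenced MiSeq chips were transcribed in situ by E. coli RNA polymerase and followed at 37 °C through a hybridised Cy3 probe. Glucosamine-6-phosphate at 40 μM to 10 mM in HEPES/KCl/Mg(OAc)2 buffer was flowed in, and tiles were imaged over ~14 h. Signals were normalised to baseline and to non-cleaving reference variants, and per-tile medians were fit to one- or two-exponential decays to give kobs. Weighted Michaelis–Menten fits across concentrations gave kcat and KM.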
# glucosamine-6-phosphate [2] = variants of: B1; test: KM; higher = weaker cofactor use; RNA array
# In short: as §1
# glucosamine-6-phosphate [3] = variants of: B1; test: self-cleavage kobs at 40 uM GlcN6P; higher = faster cleavage; RNA array
# In short: as §1
# glucosamine-6-phosphate [4] = variants of: B1; test: self-cleavage kobs at 160 uM GlcN6P; higher = faster cleavage; RNA array
# In short: as §1
# glucosamine-6-phosphate [5] = variants of: B1; test: self-cleavage kobs at 640 uM GlcN6P; higher = faster cleavage; RNA array
# In short: as §1
# glucosamine-6-phosphate [6] = variants of: B1; test: self-cleavage kobs at 2500 uM GlcN6P; higher = faster cleavage; RNA array
# In short: as §1
# glucosamine-6-phosphate [7] = variants of: B1; test: self-cleavage kobs at 10000 uM GlcN6P; higher = faster cleavage; RNA array
# In short: as §1
Variant,kcat (glucosamine-6-phosphate [1]) [s⁻¹],KM (glucosamine-6-phosphate [2]) [µM],self-cleavage kobs at 40 uM GlcN6P (glucosamine-6-phosphate [3]) [s⁻¹],self-cleavage kobs at 160 uM GlcN6P (glucosamine-6-phosphate [4]) [s⁻¹],self-cleavage kobs at 640 uM GlcN6P (glucosamine-6-phosphate [5]) [s⁻¹],self-cleavage kobs at 2500 uM GlcN6P (glucosamine-6-phosphate [6]) [s⁻¹],self-cleavage kobs at 10000 uM GlcN6P (glucosamine-6-phosphate [7]) [s⁻¹]
U54C U56C,0.0062 ± 0.0012,4050 ± 1000,7.75e-05 ± 1.4e-05,0.000223 ± 3.3e-05,0.00084 ± 0.00013,0.002 ± 0.00042,0.00471 ± 0.00069
C50U C70A,2.87e-05 ± 6.9e-06,–,–,–,3.61e-05 ± 1.4e-05,3.43e-05 ± 1.5e-05,–
U54C U57C,0.000143 ± 2e-05,3450 ± 1100,–,–,–,6.28e-05 ± 1.1e-05,0.000105 ± 1.6e-05
A52G U54C,0.00197 ± 7e-05,2700 ± 150,2.55e-05 ± 1.1e-05,0.000111 ± 1.8e-05,0.000379 ± 5.7e-05,0.000985 ± 0.00015,0.00153 ± 0.00019
A53U U55A,0.026 ± 0.012,–,0.000486 ± 8.9e-05,0.000887 ± 0.00017,0.00403 ± 0.00095,0.00891 ± 0.0017,0.0215 ± 0.0042
U49C C61U,1.01e-05 ± 1.5e-06,–,–,–,–,–,< 1e-05
A52U U55A,0.000247 ± 3.7e-05,2490 ± 990,–,–,3.67e-05 ± 1.3e-05,0.000147 ± 1.8e-05,0.000191 ± 1.8e-05
A52U U55C,0.000619 ± 0.00011,–,–,–,–,0.000125 ± 3.2e-05,0.000288 ± 4.2e-05
A53G G66C,0.000985 ± 5.6e-05,1230 ± 190,–,0.000121 ± 5e-05,–,0.000619 ± 0.00014,0.000909 ± 0.00017
C50A U56G,< 1e-05,–,–,–,–,–,–
A53U U57A,0.000262 ± 3e-05,2870 ± 600,–,–,5.19e-05 ± 8e-06,0.000113 ± 1.4e-05,0.000215 ± 3e-05
A52C C67A C68G,2.5e-05 ± 1.2e-05,–,–,–,–,–,–
A52U C68A,2.14e-05 ± 8.2e-06,–,–,–,–,–,–
G51A,1.01e-05 ± 2.8e-07,965 ± 160,–,–,–,–,–
A52G C58G,1.7e-05 ± 1.7e-06,–,–,–,–,–,–
U54A A64U,0.000124 ± 1.2e-05,–,–,–,7.79e-05 ± 2.6e-05,7.51e-05 ± 2.5e-05,0.00012 ± 1.1e-05
A53C A64C,8.21e-05 ± 2.3e-05,–,–,–,–,–,6.96e-05 ± 1.6e-05
U49G G59A,< 1e-05,–,< 1e-05,< 1e-05,–,–,–

Variant,kcat (glucosamine-6-phosphate [1]) [s⁻¹],KM (glucosamine-6-phosphate [2]) [µM],self-cleavage kobs at 40 uM GlcN6P (glucosamine-6-phosphate [3]) [s⁻¹],self-cleavage kobs at 160 uM GlcN6P (glucosamine-6-phosphate [4]) [s⁻¹],self-cleavage kobs at 640 uM GlcN6P (glucosamine-6-phosphate [5]) [s⁻¹],self-cleavage kobs at 2500 uM GlcN6P (glucosamine-6-phosphate [6]) [s⁻¹],self-cleavage kobs at 10000 uM GlcN6P (glucosamine-6-phosphate [7]) [s⁻¹]
C50G C61A,0.000122 ± 1.7e-05,–,9.57e-05 ± 9.4e-06,0.00018 ± 2.4e-05,0.000166 ± 1.7e-05,9.96e-05 ± 1.4e-05,0.000113 ± 9e-06
C50G C61G,0.000119 ± 1.7e-05,–,8.54e-05 ± 1.1e-05,0.000156 ± 1.9e-05,0.000115 ± 1.6e-05,0.000161 ± 2e-05,9.9e-05 ± 1e-05
A52G U69A,5.52e-05 ± 3e-06,–,–,–,–,5.1e-05 ± 1.7e-05,5.51e-05 ± 8.5e-06
U49G U69C,0.000152 ± 6.9e-06,466 ± 86,–,–,8.8e-05 ± 2.4e-05,0.000131 ± 2.7e-05,0.00014 ± 3.8e-05
A52U U56A,7.93e-05 ± 2e-05,–,< 1e-05,–,–,7.17e-05 ± 1.7e-05,6.73e-05 ± 9.7e-06
A52U U56C,2.72e-05 ± 1.5e-06,1210 ± 330,–,–,–,–,–
U49A G66C,< 1e-05,–,–,–,< 1e-05,–,–
C50U U57A,1.46e-05 ± 7e-07,397 ± 84,< 1e-05,–,–,–,< 1e-05
U54A C68A,5.71e-05 ± 2e-05,–,–,4.94e-05 ± 1.5e-05,7.98e-05 ± 1.5e-05,7.88e-05 ± 1.1e-05,–
U49G,0.00147 ± 0.00022,2840 ± 550,2.57e-05 ± 1.3e-06,7.59e-05 ± 2.5e-06,0.000258 ± 7.3e-06,0.000807 ± 4.3e-05,0.00113 ± 4.5e-05
C50A G51A,< 1e-05,–,–,–,–,–,< 1e-05
A52U U65A U69C,1.13e-05 ± 8.7e-07,1400 ± 420,–,–,–,–,–
A53G C68G,0.000144 ± 2.6e-05,–,–,5.82e-05 ± 1e-05,8.52e-05 ± 9.4e-06,0.00014 ± 1.5e-05,–
A53G C68A,5.55e-05 ± 7.9e-06,–,–,5.86e-05 ± 1.5e-05,6.08e-05 ± 1.2e-05,6.36e-05 ± 1e-05,4.54e-05 ± 7.8e-06
C50G C70U,0.000103 ± 2.1e-05,–,8.81e-05 ± 1e-05,0.000129 ± 1.5e-05,–,0.000149 ± 1.4e-05,7.8e-05 ± 8.6e-06
A53U U54A,0.0314 ± 0.0026,1760 ± 180,0.000727 ± 0.00011,0.00236 ± 0.00084,0.00817 ± 0.0019,0.0161 ± 0.0071,0.0279 ± 0.0062
A53U U54G,0.0452 ± 0.016,3780 ± 1600,0.000521 ± 4.8e-05,–,0.00468 ± 0.001,0.0161 ± 0.0061,0.0354 ± 0.0056
U54G C58U C67U,4.43e-05 ± 9.6e-06,–,–,–,–,5.48e-05 ± 1.7e-05,3.78e-05 ± 1.2e-05
